In patent US9138474B2, “Composition comprising expression or activity inhibitors of Ninjurin1 for the prevention and treatment of inflammatory disease” (SNU R&DB FOUNDATION, priority 2008, dated 2015):

Tests used:
Wnt7b expression = Wnt7b expression (RT-PCR) in BV2 cells expressing Myc-Ninjurin1 treated with p38 inhibitor; format: cell-based, rodent; conditions: 0, 10, 30 uM, 24 hours
Protocol: Primary cultured human microvascular pericytes (Applied Cell Biology Research Institute) were cultured in Dulbecco's modified Eagle's medium (DMEM); Raw 264.7 cells (TIB-71™) and BV2 cells were cultured in DMEM; and HUVEC cells were cultured in M199 supplemented with 20% FBS (Invitrogen, Grand Island, N.Y.). Those cells were cultured at 37° C. in humid air composed of […] and 5% CO2. Raw cells and BV2 cells were transformed by using Lipofectamine Plus Reagent (Invitrogen). Cell lysate was prepared by using lysis buffer (40 mM Tris-Cl pH 8.4, 10 mM EDTA, 120 mM NaCl, 0.1% NP-40). To prepare culture solution to treat human microvascular pericytes, transformed macrophages were cultured in serum (FBS)-free DMEM for 24 hours, which were then filtered with 0.22 […] filter paper (Millipore), followed by 10 fold concentration using centrifugation filtering tube (Millipore). For the chemical treatment, cells were cultured at the density of 60-70% and then treated with Ang1 and Ang2 (500-1000 ng/ml) independently or together in serum free condition for 14-16 hours. To understand signal transduction pathway, cells were transformed with Mock or Ninjurin1 cDNA. Serum was depleted for 14-16 hours and then the cells were treated with SB203580 (Sigma), the p38 inhibitor, for 24 hours. […]

[1] = tested on: rodent originated macrophages (Raw264.7, BV2); assay: Wnt7b and Ninjurin1 quantified by RT-PCR in macrophages in the presence of rh-Ang1 or rh-Ang2; format: cell-based; conditions: 0, 1 and 2.5 ug/ml
Protocol: Primary cultured human microvascular pericytes (Applied Cell Biology Research Institute) were cultured in Dulbecco's modified Eagle's medium (DMEM); Raw 264.7 cells (TIB-71™) and BV2 cells were cultured in DMEM; and HUVEC cells were cultured in M199 supplemented with 20% FBS (Invitrogen, Grand Island, N.Y.). Those cells were cultured at 37° C. in humid air composed of […] and 5% CO2. Raw cells and BV2 cells were transformed by using Lipofectamine Plus Reagent (Invitrogen). Cell lysate was prepared by using lysis buffer (40 mM Tris-Cl pH 8.4, 10 mM EDTA, 120 mM NaCl, 0.1% NP-40). To prepare culture solution to treat human microvascular pericytes, transformed macrophages were cultured in serum (FBS)-free DMEM for 24 hours, which were then filtered with 0.22 […] filter paper (Millipore), followed by 10 fold concentration using centrifugation filtering tube (Millipore). For the chemical treatment, cells were cultured at the density of 60-70% and then treated with Ang1 and Ang2 (500-1000 ng/ml) independently or together in serum free condition for 14-16 hours. To understand signal transduction pathway, cells were transformed with Mock or Ninjurin1 cDNA. Serum was depleted for 14-16 hours and then the cells were treated with SB203580 (Sigma), the p38 inhibitor, for 24 hours.
Particularly, RT-PCR and real time PCR were performed as follows: Transformed BV2 cells were cultured in DMEM supplemented with 1% serum for 2 days, and then RNA was extracted by using Trizol reagent (Invitrogen). Following primers were used for RT-PCR: Gapdh: forward primer 5′-[…]-3′ (SEQ. ID. NO: 4), reverse primer 5′-[…]-3′ (SEQ. ID. NO: 5); Ninjurin1: forward primer 5′-GAGTCGGGCACTGAGGA-3′ (SEQ. ID. NO: 6), reverse primer: 5′-GTTGCAGGGGTCTGGTCA-3′ (SEQ. ID. NO: 7); Ang1: forward primer 5′-[…]-3′ (SEQ. ID. NO: 8), reverse primer: 5′-[…]-3′ (SEQ. ID. NO: 9); Ang2: forward primer 5′-[…]-3′ (SEQ. ID. NO: 10), reverse primer: 5′-[…]-3′ (SEQ. ID. NO: 11); Wnt7b: forward primer 5′-[…]-3′ (SEQ. ID. NO: 12), reverse primer: 5′-[…]-3′ (SEQ. ID. NO: 13); Wnt7b: 2nd round forward primer 5′-[…]-3′ (SEQ. ID. NO: 14), reverse primer: 5′-[…]-3′ (SEQ. ID. NO: 15). The PCR products were separated on 1.2% agarose gel containing EtBr (ethidium bromide), followed by analysis by digital imaging. Primers used for real-time PCR were as follows: Ang2: forward primer 5′-[…]-3′ (SEQ. ID. NO: 16), reverse primer: 5′-[…]-3′ (SEQ. ID. NO: 17); Gapdh, Ang1 and Wnt7: same primers as used for RT-PCR were used. […]
To investigate interaction among Wnt7b, Ninjurin1, Ang1 and Ang2, Wnt7b and Ninjurin1 were quantified by RT-PCR in the presence of recombinant human Ang1 (rh-Ang1) and rh-Ang2 at different concentrations (0, 1 and 2.5 ug/ml) in rodent originated macrophages (Raw264.7, BV2).

Molecule	Wnt7b expression stimulated by Ninjurin1 (Wnt7b expression)	Ninjurin1 expression [1]	Wnt7b expression [1]
C[S+]([O-])c1ccc(-c2nc(-c3ccncc3)c(-c3ccc(F)cc3)[nH]2)cc1 (centres unmarked) [p38 inhibitor, SB203580]	reduced	–	–
rh-Ang1: recombinant human Ang1 (angiopoietin-1), R&D Systems (protein, UniProt Q15389 16-498, looked up) Angiopoietin-1: HIGCSNQRRSPENSGRRYNRIQHGQCAYTFILPEHDGNCRESTTDQYNTNALQRDAPHVEPDFSSQKLQHLEHVMENYTQWLQKLENYIVENMKSEMAQIQQNAVQNHTATMLEIGTSLLSQTAEQTRKLTDVETQVLNQTSRLEIQLLENSLSTYKLEKQLLQQTNEILKIHEKNSLLEHKILEMEGKHKEELDTLKEEKENLQGLVTRQTYIIQELEKQLNRATTNNSVLQKQQLELMDTVHNLVNLCTKEGVLLKGGKREEEKPFRDCADVYQAGFNKSGIYTIYINNMPEPKKVFCNMDVNGGGWTVIQHREDGSLDFQRGWKEYKMGFGNPSGEYWLGNEFIFAITSQRQYMLRIELMDWEGNRAYSQYDRFHIGNEKQNYRLYLKGHTGTAGKQSSLILHGADFSTKDADNDNCMCKCALMLTGGWWFDACGPSNLNGMFYTAGQNHGKLNGIKWHYFKGPSYSLRSTTMMIRPLDF	–	reduced	reduced
rh-Ang2: recombinant human Ang2 (angiopoietin-2), R&D Systems (protein, UniProt O15123 19-496, looked up) Angiopoietin-2: YNNFRKSMDSIGKKQYQVQHGSCSYTFLLPEMDNCRSSSSPYVSNAVQRDAPLEYDDSVQRLQVLENIMENNTQWLMKLENYIQDNMKKEMVEIQQNAVQNQTAVMIEIGTNLLNQTAEQTRKLTDVEAQVLNQTTRLELQLLEHSLSTNKLEKQILDQTSEINKLQDKNSFLEKKVLAMEDKHIIQLQSIKEEKDQLQVLVSKQNSIIEELEKKIVTATVNNSVLQKQQHDLMETVNNLLTMMSTSNSAKDPTVAKEEQISFRDCAEVFKSGHTTNGIYTLTFPNSTEEIKAYCDMEAGGGGWTIIQRREDGSVDFQRTWKEYKVGFGNPSGEYWLGNEFVSQLTNQQRYVLKIHLKDWEGNEAYSLYEHFYLSSEELNYRIHLKGLTGTAGKISSISQPGNDFSTKDGDNDKCICKCSQMLTGGWWFDACGPSNLNGMYYPQRQNTNKFNGIKWYYWKGSGYSLKATTMMIRPADF	–	increased	increased
